According to patent US20050064384A1 (published 2005):

T1: FLAG-tagged wild type (wt) MST1 (mouse, UniProt Q9JI11 1-487)
T1 construct: also called FLAG-MST1; full-length MST1
T1 sequence: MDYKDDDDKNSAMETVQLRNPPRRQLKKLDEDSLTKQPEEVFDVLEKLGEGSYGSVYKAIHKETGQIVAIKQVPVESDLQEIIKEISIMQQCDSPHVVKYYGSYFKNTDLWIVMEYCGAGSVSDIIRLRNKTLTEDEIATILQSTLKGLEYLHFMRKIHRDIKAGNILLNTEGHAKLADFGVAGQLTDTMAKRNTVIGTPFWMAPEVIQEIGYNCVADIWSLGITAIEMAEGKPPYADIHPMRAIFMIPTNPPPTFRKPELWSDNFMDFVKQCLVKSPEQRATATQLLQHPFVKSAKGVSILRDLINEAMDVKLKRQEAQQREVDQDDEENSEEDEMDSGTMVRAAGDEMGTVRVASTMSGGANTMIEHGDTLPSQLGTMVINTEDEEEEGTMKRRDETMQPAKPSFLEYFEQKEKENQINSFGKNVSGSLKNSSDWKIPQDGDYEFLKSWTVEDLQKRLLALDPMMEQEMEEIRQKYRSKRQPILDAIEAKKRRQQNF

T2: FLAG-tagged GCK (human, UniProt Q12851 1-820)
T2 sequence: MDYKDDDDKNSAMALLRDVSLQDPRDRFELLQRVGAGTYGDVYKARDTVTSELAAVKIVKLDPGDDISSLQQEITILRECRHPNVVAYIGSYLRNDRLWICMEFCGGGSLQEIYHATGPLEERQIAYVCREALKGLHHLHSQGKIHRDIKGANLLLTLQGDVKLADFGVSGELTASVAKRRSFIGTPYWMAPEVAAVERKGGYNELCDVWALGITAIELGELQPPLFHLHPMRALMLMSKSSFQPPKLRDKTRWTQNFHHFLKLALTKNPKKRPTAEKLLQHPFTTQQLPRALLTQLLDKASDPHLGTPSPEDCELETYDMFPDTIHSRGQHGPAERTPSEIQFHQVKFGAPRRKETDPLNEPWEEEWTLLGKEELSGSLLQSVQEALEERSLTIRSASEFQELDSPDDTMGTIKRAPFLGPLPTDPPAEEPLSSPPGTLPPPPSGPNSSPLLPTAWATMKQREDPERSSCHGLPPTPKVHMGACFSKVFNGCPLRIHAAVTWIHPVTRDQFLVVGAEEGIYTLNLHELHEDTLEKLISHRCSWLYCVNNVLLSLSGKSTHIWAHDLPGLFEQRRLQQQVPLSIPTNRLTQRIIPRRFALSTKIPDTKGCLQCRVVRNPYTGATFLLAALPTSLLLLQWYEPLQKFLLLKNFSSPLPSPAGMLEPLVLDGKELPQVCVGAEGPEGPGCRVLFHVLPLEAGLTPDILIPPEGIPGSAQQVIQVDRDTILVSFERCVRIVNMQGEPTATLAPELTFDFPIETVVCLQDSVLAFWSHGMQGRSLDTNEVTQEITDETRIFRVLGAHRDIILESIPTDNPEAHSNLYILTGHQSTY

B1: GST-NORE (7-413) (other, not shown: a dimerising Fc or GST)
chain: GQRPYPLLLDPEPPRYLQSLGGTEPPPPARPRRCIPTALIPAAGASEDRGGRRSGRRDPEPTPRDCRHARPVRPGLQPRLRLRPGSHRPRDVRSIFEQPQDPRVLAERGEGHRFVELALRGGPGWCDLCGREVLRQALRCANCKFTCHSECRSLIQLDCRQKGGPALDRRSPGSTLTPTLNQNVCKAVEETQHPPTIQEIKQKIDSYNSREKHCLGMKLSEDGTYTGFIKVHLKLRRPVTVPAGSGPSPSMDAIKEVNPAATTDKRTSFYLPLDAIKQLHISSTTTVSEVIQGLLKKFMVVDNPQKFALFKRIHKDGQVLFQKLSIADYPLYLRLLAGPDTDVLSFVLKENETGEVEWDAFSIPELQNFLTILEKEEQDKIHQLQKKYNKFRQKLEEALRESQGKPG
B2: HA-NORE1 (other)
chain: MYPYDVPDYAMASPAIGQRPYPLLLDPEPPRYLQSLGGTEPPPPARPRRCIPTALIPAAGASEDRGGRRSGRRDPEPTPRDCRHARPVRPGLQPRLRLRPGSHRPRDVRSIFEQPQDPRVLAERGEGHRFVELALRGGPGWCDLCGREVLRQALRCANCKFTCHSECRSLIQLDCRQKGGPALDRRSPGSTLTPTLNQNVCKAVEETQHPPTIQEIKQKIDSYNSREKHCLGMKLSEDGTYTGFIKVHLKLRRPVTVPAGSGPSPSMDAIKEVNPAATTDKRTSFYLPLDAIKQLHISSTTTVSEVIQGLLKKFMVVDNPQKFALFKRIHKDGQVLFQKLSIADYPLYLRLLAGPDTDVLSFVLKENETGEVEWDAFSIPELQNFLTILEKEEQDKIHQLQKKYNKFRQKLEEALRESQGKPG
notes: also called recombinant hemagglutinin (HA)-tagged NORE fusion polypeptide

Legend:
[1] = biological target: T3, FLAG-tagged Ki-RasG12V (Meleagris gallopavo (Wild turkey), UniProt P79800 1-188); assay: in vitro binding of FLAG-Ras from HEK293 extracts to GST fusion protein immobilized on GSH-agarose, anti-FLAG immunoblot
T3 construct: also called FLAG Ki-RasG12V
Description: (§1) Aliquots of extracts from these cells (as shown in the center panel) were adsorbed to the immobilized GST proteins; the beads were washed extensively and eluted with SDS.

[2] = biological target: T4, FLAG-tagged Ha-RasG12V (human, UniProt P01112 1-189); assay: as above
T4 construct: also called FLAG-V12RAS; FLAG Ha-RasG12V
Description: as §1

[3] = biological target: T1, FLAG-tagged wild type (wt) MST1; assay: anti-FLAG immunoprecipitation from co-transfected HEK293 cells, FLAG peptide elution, anti-HA immunoblot
Description: (§2) FLAG-tagged proteins were immunopreciptated with anti-FLAG M2-agarose, eluted with the excess of the FLAG peptide. The eluates were analyzed by immunoblotting after SDS-PAGE. Upper panel: proteins immunoprecipitated (IP) by FLAG-agarose probed with anti-HA antibody 12CA5 (α-HA). Middle panel: cell extracts probed with anti-FLAG antibody (α-FLAG).

[4] = biological target: T5, FLAG-tagged SOK (human, UniProt O00506 1-426); assay: anti-FLAG immunoprecipitation from co-transfected HEK293 cells, anti-HA immunoblot
T5 construct: also called SOK1
T5 sequence (O00506 other isoform, or with tags, fused parts or gaps limits assumed): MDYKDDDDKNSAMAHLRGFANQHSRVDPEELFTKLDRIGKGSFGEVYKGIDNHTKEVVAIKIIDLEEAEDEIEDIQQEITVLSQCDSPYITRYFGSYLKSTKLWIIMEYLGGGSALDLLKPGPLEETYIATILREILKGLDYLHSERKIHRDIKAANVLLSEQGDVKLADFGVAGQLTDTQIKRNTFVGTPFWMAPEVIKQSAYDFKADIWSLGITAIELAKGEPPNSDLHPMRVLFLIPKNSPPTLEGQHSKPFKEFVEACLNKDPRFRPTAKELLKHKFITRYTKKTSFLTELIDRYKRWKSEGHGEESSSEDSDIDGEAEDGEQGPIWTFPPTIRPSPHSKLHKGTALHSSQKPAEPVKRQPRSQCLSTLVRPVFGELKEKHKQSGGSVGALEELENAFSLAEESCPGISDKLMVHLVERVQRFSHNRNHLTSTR
Description: as §2

[5] = biological target: T2, FLAG-tagged GCK; assay: as above
Description: as §2

| Binder | binding result [1] | binding result [2] | binding result [3] | binding result [4] | binding result [5] |
| --- | --- | --- | --- | --- | --- |
| B1 | binds | binds | – | – | – |
| B2 | – | – | binds | no binding | no binding |
